# Measured values as given in patent publication US20260227398A1, “CD62L (L-SELECTIN) APTAMER AND ITS APPLICATION FOR T CELL ISOLATION” (University of Washington, published 2026).
# T1: L-selectin (CD62L, SELL) (Homo sapiens, UniProt P14151 P14151:39-332)
# T1 sequence: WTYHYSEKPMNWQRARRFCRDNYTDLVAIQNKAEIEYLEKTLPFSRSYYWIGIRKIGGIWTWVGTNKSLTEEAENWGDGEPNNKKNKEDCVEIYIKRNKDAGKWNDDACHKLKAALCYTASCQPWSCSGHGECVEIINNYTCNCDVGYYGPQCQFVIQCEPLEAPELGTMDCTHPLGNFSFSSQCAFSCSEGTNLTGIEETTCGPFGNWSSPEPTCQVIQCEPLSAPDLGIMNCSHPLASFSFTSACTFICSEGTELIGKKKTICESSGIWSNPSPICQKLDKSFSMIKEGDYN
# T2: E-selectin (CD62E, SELE) (Homo sapiens, UniProt P16581 P16581:22-556)
# T2 sequence: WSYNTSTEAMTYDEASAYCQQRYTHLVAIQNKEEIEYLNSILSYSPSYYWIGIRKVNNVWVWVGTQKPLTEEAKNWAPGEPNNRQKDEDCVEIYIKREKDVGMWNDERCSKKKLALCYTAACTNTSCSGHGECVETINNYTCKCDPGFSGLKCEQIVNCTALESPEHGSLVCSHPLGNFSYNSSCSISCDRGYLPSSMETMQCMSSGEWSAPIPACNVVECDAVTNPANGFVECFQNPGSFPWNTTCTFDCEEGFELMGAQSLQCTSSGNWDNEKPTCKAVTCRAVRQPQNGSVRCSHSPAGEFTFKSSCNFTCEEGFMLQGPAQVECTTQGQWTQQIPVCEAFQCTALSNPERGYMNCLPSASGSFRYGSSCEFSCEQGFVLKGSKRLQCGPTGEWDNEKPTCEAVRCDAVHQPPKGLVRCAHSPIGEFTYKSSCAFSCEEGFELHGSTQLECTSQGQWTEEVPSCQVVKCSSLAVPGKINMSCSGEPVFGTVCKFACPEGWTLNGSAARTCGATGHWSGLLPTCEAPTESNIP
# T3: L-selectin (CD62L) on J.RT3-T3.5 cells (Homo sapiens, UniProt P14151 P14151:39-372)
# T3 sequence: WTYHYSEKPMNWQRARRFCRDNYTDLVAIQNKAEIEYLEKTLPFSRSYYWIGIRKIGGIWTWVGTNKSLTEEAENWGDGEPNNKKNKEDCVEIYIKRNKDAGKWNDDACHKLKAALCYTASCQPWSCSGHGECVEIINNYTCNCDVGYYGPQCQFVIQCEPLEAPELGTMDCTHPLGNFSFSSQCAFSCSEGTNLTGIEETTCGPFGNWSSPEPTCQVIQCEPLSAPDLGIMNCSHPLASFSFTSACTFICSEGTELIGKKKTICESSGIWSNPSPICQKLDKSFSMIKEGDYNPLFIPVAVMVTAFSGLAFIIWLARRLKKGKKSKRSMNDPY
# T4: L-selectin (CD62L) on primary CD4+ T cells (Homo sapiens, UniProt P14151 P14151:39-372)
# T4 sequence: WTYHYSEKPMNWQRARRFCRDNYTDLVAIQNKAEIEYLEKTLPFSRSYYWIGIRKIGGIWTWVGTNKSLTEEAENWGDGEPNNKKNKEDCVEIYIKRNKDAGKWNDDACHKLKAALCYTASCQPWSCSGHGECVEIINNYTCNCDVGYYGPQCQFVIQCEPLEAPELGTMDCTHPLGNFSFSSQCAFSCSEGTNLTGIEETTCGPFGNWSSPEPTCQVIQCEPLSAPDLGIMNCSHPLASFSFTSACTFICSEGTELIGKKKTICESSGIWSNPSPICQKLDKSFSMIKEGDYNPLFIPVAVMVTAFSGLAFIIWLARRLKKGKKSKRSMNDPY
# Tests used:
# [1] = molecular target: human CD62L/L-selectin expressed on J.RT3-T3.5 cells (human) (UniProt P14151); test: flow cytometry, 50 nM antibody on J.RT3-T3.5 cells 48 hours after electroporation with SELL siRNA
# P-selectin (CD62P, SELP) = P-selectin (CD62P, SELP) (Homo sapiens, UniProt P16109 P16109:42-771); test: BLI; no noticeable binding up to 1000 nM CD62P; details: tags: recombinant human CD62P, ACROBiosystems; label: 5' 6-FAM or biotin (hexaethylene glycol spacer)
# P-selectin (CD62P, SELP), sequence (P16109 42-771, one chain of several): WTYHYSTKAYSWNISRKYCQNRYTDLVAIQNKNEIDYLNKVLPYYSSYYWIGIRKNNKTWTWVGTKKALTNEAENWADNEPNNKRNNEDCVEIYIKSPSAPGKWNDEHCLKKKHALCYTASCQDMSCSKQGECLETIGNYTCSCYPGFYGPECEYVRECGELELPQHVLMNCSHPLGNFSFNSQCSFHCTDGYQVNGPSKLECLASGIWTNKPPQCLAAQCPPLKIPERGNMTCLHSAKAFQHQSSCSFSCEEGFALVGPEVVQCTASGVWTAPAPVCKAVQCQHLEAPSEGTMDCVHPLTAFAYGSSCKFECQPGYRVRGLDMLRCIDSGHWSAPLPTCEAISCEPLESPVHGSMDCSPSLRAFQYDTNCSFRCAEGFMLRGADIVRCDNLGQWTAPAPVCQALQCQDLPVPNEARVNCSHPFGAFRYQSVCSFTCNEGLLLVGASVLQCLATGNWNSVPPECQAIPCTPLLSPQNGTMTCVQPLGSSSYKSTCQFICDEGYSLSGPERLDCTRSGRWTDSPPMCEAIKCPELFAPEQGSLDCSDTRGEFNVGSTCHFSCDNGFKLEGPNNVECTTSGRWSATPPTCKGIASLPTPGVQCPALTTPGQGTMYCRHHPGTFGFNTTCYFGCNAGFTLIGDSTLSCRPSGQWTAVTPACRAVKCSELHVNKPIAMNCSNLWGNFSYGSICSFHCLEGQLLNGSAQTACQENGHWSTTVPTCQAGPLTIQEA
# Procedure: (§1) Prior to running, Octet streptavidin (SA) biosensors (Sartorius of Göttingen, Germany) were pre-soaked in 200 μL diluent (WB supplemented with 1% BSA, 0.1 mg/mL yeast tRNA, 0.1 mg/mL salmon sperm DNA and 0.01% Tween-20). For BLI, the SA biosensors were first rinsed in 200 μL diluent for 100 sec to establish the first baseline. The rinsed sensors were transferred to wells containing 50 nM biotinylated aptamers in 200 μL diluent for aptamer immobilization onto the SA biosensors until a threshold of 0.5 nm is reached. Next, aptamer-immobilized SA biosensors were rinsed in 200 μL diluent for 100 sec to remove excess aptamers and for an additional 100 sec in 200 μL diluent to establish the second baseline. The sensors were then transferred to wells containing different concentrations of L-selectin in 200 μL diluent to allow aptamer association with CD62L (R&D Systems of Minneapolis, Minnesota), CD62P (ACROBiosystems of Newark, Delaware), or CD62E (ACROBiosystems). Finally, the sensors were transferred to wells containing 200 μL diluent to allow dissociation. […]
# (§2) The binding affinity and kinetics of CD62LApt.52 to JRT.3-T3.5 cells and to recombinant human CD62L protein was characterized by flow cytometry and BLI, respectively. […] However, no noticeable binding of CD62LApt.52 to either CD62E or CD62P at up to 1000 nM was detected by BLI (FIGS. 15A, 15B).
# L-selectin (CD62L, SELL) [2] = molecular target: T1, L-selectin (CD62L, SELL); test: BLI; +/-0.045; R2 0.9959; aptamer immobilised; details: tags: recombinant human CD62L, R&D Systems; label: 5' 6-FAM or biotin (hexaethylene glycol spacer)
# Procedure: as §1, §2
# E-selectin (CD62E, SELE) = molecular target: T2, E-selectin (CD62E, SELE); test: BLI; no noticeable binding up to 1000 nM CD62E; details: tags: recombinant human CD62E, ACROBiosystems; label: 5' 6-FAM or biotin (hexaethylene glycol spacer)
# Procedure: as §1, §2
# [3] = molecular target: T3, L-selectin (CD62L) on J.RT3-T3.5 cells; test: flow; DPBS Ca/Mg + 5 mM MgCl2, 25 mM glucose, BSA, 4 C; details: tags: endogenous, J.RT3-T3.5 human T-ALL line; label: 5' 6-FAM or biotin (hexaethylene glycol spacer)
# L-selectin (CD62L, SELL) [4] = molecular target: T1, L-selectin (CD62L, SELL); test: BLI; +/-0.125; R2 0.9898; aptamer immobilised; details: tags: recombinant human CD62L, R&D Systems; label: 5' biotin
# Procedure: Prior to running, Octet streptavidin (SA) biosensors (Sartorius of Göttingen, Germany) were pre-soaked in 200 μL diluent (WB supplemented with 1% BSA, 0.1 mg/mL yeast tRNA, 0.1 mg/mL salmon sperm DNA and 0.01% Tween-20). For BLI, the SA biosensors were first rinsed in 200 μL diluent for 100 sec to establish the first baseline. The rinsed sensors were transferred to wells containing 50 nM biotinylated aptamers in 200 μL diluent for aptamer immobilization onto the SA biosensors until a threshold of 0.5 nm is reached. Next, aptamer-immobilized SA biosensors were rinsed in 200 μL diluent for 100 sec to remove excess aptamers and for an additional 100 sec in 200 μL diluent to establish the second baseline. The sensors were then transferred to wells containing different concentrations of L-selectin in 200 μL diluent to allow aptamer association with CD62L (R&D Systems of Minneapolis, Minnesota), CD62P (ACROBiosystems of Newark, Delaware), or CD62E (ACROBiosystems). Finally, the sensors were transferred to wells containing 200 μL diluent to allow dissociation. The association and dissociation durations are indicated on the BLI curves.
# [5] = molecular target: T4, L-selectin (CD62L) on primary CD4+ T …; test: flow; apparent KD +/-0.033; cryopreserved CD4+ T cells used right after thaw; DPBS Ca/Mg + 5 mM MgCl2, 4 C; details: tags: endogenous, label: 5' 6-FAM, Cy5 or biotin (hexaethylene glycol spacer)
# L-selectin (CD62L, SELL) [6] = molecular target: T1, L-selectin (CD62L, SELL); test: BLI; +/-0.203; 1:1 fit poor (R2 0.9029); aptamer immobilised; DPBS Ca/Mg + 5 mM MgCl2, 1% BSA, tRNA, salmon sperm DNA, Tween-20; details: tags: recombinant human CD62L, R&D Systems; label: 5' 6-FAM, Cy5 or biotin (hexaethylene glycol spacer)
# Procedure: as §1, with “baseline.” for “baseline. The sensors were then transferred to wells containing different concentrations of L-selectin in 200 μL diluent to allow aptamer association with CD62L (R&D Systems of Minneapolis, Minnesota), CD62P (ACROBiosystems of Newark, Delaware), or CD62E (ACROBiosystems). Finally, the sensors were transferred to wells containing 200 μL diluent to allow dissociation.”
# To further validate A1 binding to CD62L, the expression of CD62L was knocked down in J.RT3-T3.5 cells with siRNA duplexes targeting the SELL gene, which encodes CD62L, and compared aptamer and antibody binding to J.RT3-T3.5 cells transfected with the SELL siRNA versus a control siRNA. […] The protein was serially diluted, and the association and dissociation kinetics of biotinylated CD62LApt.88 immobilized on streptavidin tips was measured. The dissociation constants (KD) were calculated by performing a global fit on the curves using a 1:1 model.
# [7] = molecular target: T4, L-selectin (CD62L) on primary CD4+ T …; test: flow; apparent KD +/-0.086; CD4+ T cells cultured in RPMI + 10% FBS; details: tags: endogenous, label: 5' 6-FAM, Cy5 or biotin (hexaethylene glycol spacer)
# [8] = molecular target: T3, L-selectin (CD62L) on J.RT3-T3.5 cells; test: flow; stated as sub-nanomolar affinity; details: tags: endogenous, J.RT3-T3.5 human T-ALL line; label: 5' 6-FAM, Cy5 or biotin (hexaethylene glycol spacer)
molecule,measurement,setting,value
"Alexa Fluor 488 anti-human CD62L monoclonal antibody, clone DREG-56 (BioLegend)",relative antibody binding after CD62L siRNA knockdown (vs control siRNA),[1],17%
CD62LApt.52 (ssDNA) DNA: TAGTCAAGGCGATAGACGAAAAACATTGTTTTCCTGGAAGGCCCAGAATCTG,binding result,"P-selectin (CD62P, SELP)",no binding
same,Kd,"L-selectin (CD62L, SELL) [2]",5.3 nM
same,binding result,"E-selectin (CD62E, SELE)",no binding
same,Kd,[3],0.19 nM
CD62LApt.61 (ssDNA) DNA: AGACCCGACGCAGCATAGTCAAGGCGATAGACGAAAAACATTGTTTTCCTGGAAGGCCCAGAATCTGCG,Kd,"L-selectin (CD62L, SELL) [4]",5.81 nM
"CD62LApt.88 (A1, L-SA.88) (ssDNA) DNA: ATCCAGAGTGACGCAGCATAGTCAAGGCGATAGACGAAAAACATTGTTTTCCTGGAAGGCCCAGAATCTGTGGACACGGTGGCTTAGT",Kd,[5],0.04 nM
same,Kd,"L-selectin (CD62L, SELL) [6]",4.91 nM
same,Kd,[7],0.31 nM
same,Kd,[8],< 1 nM
